# Measured values taken from patent publication US20050008648A1 (BOARD OF TRUSTEES OF THE UNIVERSITY OF ILLINOIS, published 2005).
# Target: the molecule itself
# Experiment: X-ray crystal structure
# Description: Crystals were transferred to a cryoprotectant solution that in the case of the citrate condition was made of mineral oil (Sigma) while for the crystals grown in PEG it was composed of the mother liquor and 10% (w/v) xylitol-10% (w/v) sucrose. Once the crystals were mounted in loops, they were frozen by directly immersing them in liquid nitrogen. X-ray data were collected at the Advanced Photon Source using the BioCARS beamlines BM-C and BM-D, and the SERCAT beamline ID-22.
# Data for the MAD data set were collected to 2.3 Å resolution. A partially built model into the MAD electron density was used to solve the tetragonal crystals. […] The ligands were refined without conformational torsion-angle restraints in order to prevent bias towards a particular ring conformation for the sugars.
protein,measurement,value
"Human deoxycytidine kinase (dCK) (enzyme, Made in E. coli with a His-tag that was cleaved by thrombin; The selenomethionine-substituted protein was used for MAD phasing; Residues 1 to 19 were not seen in the electron density; Crystallized with dC, ara-C or gemcitabine and ADP; also called human dCK; wild type dCK) not shown",binding result,binds
